Here are results for one molecule from patent US20230071765A1, “COMPOSITIONS HAVING THIOREDOXIN ACTIVITY AND RELATED METHODS” (ORPRO THERAPEUTICS, INC., priority 2020, published 2023).

For data set [1], the system named is 4% HBE mucus from CF donors. The data set can be described thus: rheology of 4% solids CF HBE mucus (G′, G″). Conditions: 1 hr at 37° C. In kind it is biochemical, human. From the text: Mucus Preparation: Aseptic mucus was harvested from over 100 individual HBE cultures from 20 different CF donors and prepared to four weight-percent (4%) solids, a concentration that typifies chronic obstructive pulmonary disease (COPD) and mild CF (Hill, D. B. et al., 2014, A biophysical basis for mucus solids concentration as a candidate biomarker for airways disease, PloS one 9, e87681; Anderson, W. H. et al., 2015, The relationship of mucus concentration (hydration) to mucus osmotic pressure and transport in chronic bronchitis., Am J Resp Crit Care Med 192: 182-90). Rheology: HBE cell culture mucus was treated with DTT (1 mM) and several concentrations of ORP100S (0.01, 0.1, and 1.0 mM) for 1 hr at 37° C. following previously established methods (Hill, D. B., and Button, B., 2012, Establishment of respiratory air-liquid interface cultures and their use in studying mucin production, secretion, and function. In Mucins: Methods and Protocols, D. J. Thornton, ed., pp. 245-58; Youngren-Ortiz, S. et al., 2017, Development of optimized inhalable Gemcitabine-loaded gelatin nanocarriers for lung cancer, J Aerosol Med Pulm Drug Delivery 30:299-321; Seagrave, J., et al., 2012, Effects of guaifenesin, N-acetylcysteine, and ambroxol on MUC5AC and mucociliary transport in primary differentiated human tracheal-bronchial cells, Respir Res 13: 98). Concentration and time course assays were performed using a TA Instruments DHR3 rheometer to assess the bulk, macroscopic biophysical effects of test article and controls on HBE mucus properties. Briefly, the linear regime of a 1 Hz amplitude (stress) sweep was identified for each treatment condition. […] Creep recovery experiments were performed in which a known stress (between 0.05 and ˜100 Pa) was applied to treated or control mucus for 10 seconds, and the rheological recovery of the fluid was recorded for an additional 50 seconds. […] From the measured parameters the viscosity and elasticity of the fluid were determined as a function of applied stress. Frequency sweeps were performed at both constant stress and strains and used to determine the baseline physical properties of mucus and its elastic and viscous components (G′ and G″, respectively). Mucin molecular weight determination: Molecular weight reduction following test article treatment was determined using a combination of gel-permeation chromatography with multi-angle laser light scattering on a Wyatt Heleos MALLS system. MALLS is a rapid and accurate means of determining molecular size and mass of high MW biomolecules in a non-destructive manner without requiring the use of relative standards. Briefly, 4% HBE treated samples were diluted 100-fold in 0.9% NaCl with 10 mM EDTA and 0.01% sodium azide. 0.2 mL of diluted sample was eluted through a Sepharose CL2B column to separate high MW mucins from other mucus proteins, and the mucin fraction was introduced into the MALLS system. Mucin MW was determined by fitting a Berry model to light scattering from 11 different angles using Wyatt Astra software.
FIGS. 5, A and B (top): Reduction in Elastic (G′) and Viscous (G″) moduli of 4% solids dry weight mucus reduced with DTT (1 mM) and ORP100S (0.01, 0.1, and 1.0 mM concentrations) for 1 hr at 37° C. […] All data were collected by examining frequency sweeps of mucus performed in the linear regime and analyzed at 1 rad/s on a TA DHR3 rheometer.

For another data set, the system named is Sprague-Dawley rats. The data set can be described thus: nebulized aerosol inhalation in rats, inflammatory potential and toxicity. In kind it is in vivo, rat. The protocol: This example evaluated and compared the in vivo inflammatory potential among three forms of C35S monothiol Trx (oxidized ORP-100, reduced ORP-100, and reduced ORP100S) formulated in the sucrose/EDTA formulation composition described in PCT WO 2006/090127 and delivered to normal rats as nebulized aerosols at doses of […] and 40 mg/kg.
All three forms of ORP-100 were lyophilized following reduction with DTT and formulated in sucrose buffer (9% sucrose 1.17 mM EDTA pH 5.2). All test articles were evaluated at low (10 mg/kg) and high (40 mg/kg) target delivered doses. The test articles were administered to Charles River Sprague-Dawley rats via inhalation as an aerosol. The aerosol of each of the test articles was produced by a commercially available vibrating mesh nebulizer whose output was attached to a nose-only exposure system.
Target doses were achieved via modulation of the aerosol exposure time while maintaining the aerosol concentration constant. Animals in Low Dose groups received a single dose of test article during a 20 minute exposure to achieve a target delivered dose of 10 mg/kg and deposited dose of 1 mg/kg. Animals in High Dose groups received a single dose of test article during a 75 minute exposure to achieve a target delivered dose of 40 mg/kg and target deposited dose of 4 mg/kg.
Animals in each study group were evaluated for potential toxicity by measuring various parameters including: clinical signs, body weight, clinical pathology (BALF cell counts, LDH and albumin measurements), lung tissue cytokines, lung weights, gross pathology, and microscopic pathology of respiratory target tissues. Additionally, three animals in each Low Dose group had lung tissues collected for immunohistochemistry (Alizèe Pathology, Thurmont, M D). Three (3) animals in each Low Dose group were to be euthanized at 1 hour and 4 hours post exposure for blood and tissue collections. Four (4) animals in each High Dose group were euthanized at 4 and 20 hours post exposure for blood and tissue collections.

A further data set concerns mucins of 4% HBE mucus. The data set can be described thus: mucin molecular weight by GPC-MALLS. The conditions noted are these: all three concentrations (0.01, 0.1, 1.0 mM), 1 hr at 37° C.; untreated 180 MDa. The data set is classed as biochemical, human. From the text:
Mucus Preparation: Aseptic mucus was harvested from over 100 individual HBE cultures from 20 different CF donors and prepared to four weight-percent (4%) solids, a concentration that typifies chronic obstructive pulmonary disease (COPD) and mild CF (Hill, D. B. et al., 2014, A biophysical basis for mucus solids concentration as a candidate biomarker for airways disease, PloS one 9, e87681; Anderson, W. H. et al., 2015, The relationship of mucus concentration (hydration) to mucus osmotic pressure and transport in chronic bronchitis., Am J Resp Crit Care Med 192: 182-90). […] Creep recovery experiments were performed in which a known stress (between 0.05 and ˜100 Pa) was applied to treated or control mucus for 10 seconds, and the rheological recovery of the fluid was recorded for an additional 50 seconds. […] From the measured parameters the viscosity and elasticity of the fluid were determined as a function of applied stress. […] Mucin molecular weight determination: Molecular weight reduction following test article treatment was determined using a combination of gel-permeation chromatography with multi-angle laser light scattering on a Wyatt Heleos MALLS system. […] Mucin MW was determined by fitting a Berry model to light scattering from 11 different angles using Wyatt Astra software. […]

The conditions of data set [2]: material purified with removal of the red fraction, 68.4 mg/ml.

B1: ORP100S: thioredoxin with monothiol active site, Cys35 and non-active Cys 62, 69 and 73 substituted with serine (SEQ ID NO:29) (protein)
chain: MVKQIESKTAFQEALDAAGDKLVVVDFSATWCGPSKMIKPFFHSLSEKYSNVIFLEVDVDDSQDVASESEVKSMPTFQFFKKGQKVGEFSGANKEKLEATINELV
modifications: synthetic peptide motif
Turning to B1, in data set [1] (10 μM), the “reduction in elastic modulus G′” value is reported as “significant reduction in G′ was not apparent” and the “reduction in viscous modulus G″” value was approximately 2 fold. Moreover, the “reduction in viscous modulus G″” value in data set [1] (100 μM) is “reduced by a similar amount as observed with 10 μM”. Also, the “elastic modulus G′” value in data set [1] (100 μM, baseline value 0.28 Pa) worked out at 0.19 Pa. For the same molecule, in data set [1] (1 mM), the “reduction in G′, factor” value is reported as approximately 3 and the “reduction in G″, factor” value was approximately 3. Moreover, the “differences in BALF LDH, albumin, cell counts, differential counts and lung tissue cytokines vs. oxidized ORP-100 control groups” value in the data set with Sprague-Dawley rats (low and high dose aerosol) is reported as “unremarkable”. Besides, the “neutrophil influx (sucrose/EDTA formulation effect)” value with Sprague-Dawley rats (sucrose/EDTA formulation, nebulized aerosol) is “abrogated neutrophil influx almost completely”. Further, the “adverse test article effects (clinical observations, BALF chemistry, cell count, differential, lung cytokines, macroscopic and microscopic findings)” value in the data set with Sprague-Dawley rats (target delivered doses 10 mg/kg and 40 mg/kg, aerosol, 1, 4 or 20 hours post exposure) was “no evidence of adverse test article effects”. Besides, the “molecular weight of mucins” value in the data set with mucins of 4% HBE mucus is reported as “ca. 150 MDa”. Further, the “Endotoxin level (Endosafe PTS)” value in data set [2] was 0.002 EU/mg.
